Reference: paper PMC10718521, “Complexity of αvβ6-integrin targeting RGD peptide trimers: emergence of non-specific binding by synergistic interaction” (RSC Medicinal Chemistry, 2023)

Columns and labels:
[1] = type: physicochemical; settings: pH 7.4
Protocol: The trimers were labeled with ^68Ga for biodistribution and small-animal PET experiments employing a fully automated method.[39] Non-radioactive reference compounds were obtained by complexation of equimolar amounts of ^natGa^3+ in form of the aq. chloride solution.[39] The polarity of the ^68Ga or ^natGa^3+ containing conjugates, respectively, was assessed by two established proxies, namely the n-octanol/water distribution coefficient at pH 7.4, log D7.4, and the retention time tR on a reverse-phase HPLC column with a suitable liquid-phase gradient (10–50% acetonitrile in water with 0.1% trifluoroacetic acid) (see Fig. 2a). […] A measurable decrease of the log D7.4 was only observed for ≥3 Tyr. […]
(§1) Unless otherwise noted, the materials and the instrumentation used (analytical and preparative HPLC, ESI-MS, gamma counter, centrifuge), and the experimental procedures (^68Ga radiolabeling and radio-TLC for quality control, determination of log D7.4, cultivation of H2009 human lung adenocarcinoma cells, generation of tumor xenografts in CB17 SCID mice, small-animal PET, and biodistribution) were described before.[19] All animal experiments have been carried out according to applicable law and institutional guidelines of Technical University of Munich, and were approved by the responsible local authority (Regierung von Oberbayern). The H2009 cells were regularly authenticated and tested for mycoplasma contamination. The affinities of the pentynoic amide functionalized peptides were determined employing a well-established ELISA protocol on immobilized integrins.[36] TRAP-triazide,[38]FF (previously termed AvB6),[32] and YY (also referred to as Tyr2-alkyne)[33] were synthesized as described previously. RP-HPLC for assessment of compound polarity was done on a 150 × 4.6 mm ReproSil-Pur 120 C18-AQ 5 μm column, with a flow of 0.75 mL min^−1 and a gradient of 10–50% MeCN in water, both containing 0.1% trifluoroacetic acid, within 15 min. The required ^natGa-complexes of the peptide trimers were synthesized by reaction with equimolar amounts of aq. GaCl3 as described.[19]

in vivo = experiment: in vivo; set-up: species or system mice; settings: CB17 SCID, mouse, total radioactivity
Text: The biodistribution of all ^68Ga-labeled peptide trimers was investigated in severe combined immunodeficiency (SCID) mice bearing subcutaneous xenografts of the αvβ6-integrin expressing human lung adenocarcinoma cell line H2009 on their right shoulders.
as §1

## CC(C)C[C@@H]1NC(=O)[C@H](CC(=O)O)NC(=O)CNC(=O)[C@H](CCCNC(=N)N)NC(=O)[C@H](Cc2ccccc2)NC(=O)[C@H](CCCCNC(=O)CCc2cn(CCCNC(=O)CCP(=O)(O)CN3CCN(CP(=O)(O)CCC(=O)NCCCn4cc(CCC(=O)NCCCC[C@H]5C(=O)N[C@@H](Cc6ccc(O)cc6)C(=O)N[C@@H](CCCNC(=N)N)C(=O)NCC(=O)N[C@@H](CC(=O)O)C(=O)N[C@@H](CC(C)C)C(=O)N[C@@H](C)C(=O)N[C@@H](Cc6ccccc6)C(=O)N6CCC[C@@H]6C(=O)N5C)nn4)CCN(CP(=O)(O)CCC(=O)NCCCn4cc(CCC(=O)NCCCC[C@H]5C(=O)N[C@@H](Cc6ccc(O)cc6)C(=O)N[C@@H](CCCNC(=N)N)C(=O)NCC(=O)N[C@@H](CC(=O)O)C(=O)N[C@@H](CC(C)C)C(=O)N[C@@H](C)C(=O)N[C@@H](Cc6ccccc6)C(=O)N6CCC[C@@H]6C(=O)N5C)nn4)CC3)nn2)N(C)C(=O)[C@H]2CCCN2C(=O)[C@H](Cc2ccccc2)NC(=O)[C@H](C)NC1=O (68Ga complex, metal not drawn) [Y2Y]
[1]
  log D7.4: −1.4 to −1.5
  logD: -1.5 ± 0.1
In vivo; Adrenals uptake
  tissue uptake at 1.5 h: 1.07 ± 0.27 %ID/g
In vivo; Blood uptake
  tissue uptake at 1.5 h: 1.91 ± 0.49 %ID/g
In vivo; Heart (myocard) uptake
  tissue uptake at 1.5 h: 0.85 ± 0.16 %ID/g
In vivo; Kidneys uptake
  tissue uptake at 1.5 h: 80.8 ± 5.12 %ID/g
In vivo; Large intestine (empty) uptake
  tissue uptake at 1.5 h: 3.89 ± 0.73 %ID/g
In vivo; Liver uptake
  tissue uptake at 1.5 h: 2.59 ± 0.35 %ID/g
In vivo; Lung uptake
  tissue uptake at 1.5 h: 7.02 ± 1.34 %ID/g
In vivo; Muscle uptake
  tissue uptake at 1.5 h: 0.63 ± 0.12 %ID/g
In vivo; Pancreas uptake
  tissue uptake at 1.5 h: 0.44 ± 0.07 %ID/g
In vivo; Small intestine (empty) uptake
  tissue uptake at 1.5 h: 2.23 ± 0.41 %ID/g
In vivo; Spleen uptake
  tissue uptake at 1.5 h: 4.36 ± 0.79 %ID/g
In vivo; Stomach (empty) uptake
  tissue uptake at 1.5 h: 6.55 ± 1.48 %ID/g
In vivo; Tumor H2009 uptake
  tissue uptake at 1.5 h: 7.93 ± 0.28 %ID/g
In vivo; tumor/organ ratio Adrenals
  tissue to tissue ratio at 1.5 h: 7.8 ± 1.7
In vivo; tumor/organ ratio Blood
  tissue to tissue ratio at 1.5 h: 4.4 ± 1.1
In vivo; tumor/organ ratio Heart (myocard)
  tissue to tissue ratio at 1.5 h: 9.6 ± 1.8
In vivo; tumor/organ ratio Kidneys
  tissue to tissue ratio at 1.5 h: 0.1
In vivo; tumor/organ ratio Large intestine (empty)
  tissue to tissue ratio at 1.5 h: 2.1 ± 0.4
In vivo; tumor/organ ratio Liver
  tissue to tissue ratio at 1.5 h: 3.1 ± 0.3
In vivo; tumor/organ ratio Lung
  tissue to tissue ratio at 1.5 h: 1.2 ± 0.2
In vivo; tumor/organ ratio Muscle
  tissue to tissue ratio at 1.5 h: 13 ± 2.5
In vivo; tumor/organ ratio Pancreas
  tissue to tissue ratio at 1.5 h: 18.2 ± 2.3
In vivo; tumor/organ ratio Small intestine (empty)
  tissue to tissue ratio at 1.5 h: 3.6 ± 0.7
In vivo; tumor/organ ratio Spleen
  tissue to tissue ratio at 1.5 h: 1.9 ± 0.4
In vivo; tumor/organ ratio Stomach (empty)
  tissue to tissue ratio at 1.5 h: 1.3 ± 0.3
